Experiment: two-colour ID-FRAP, CHO-K1 large ER inclusions
Details: glycan lost; control: YFP-Z coexpressed with HaloTag-CRT

With “Z-α1-antitrypsin: YFP-ZN46A,N83A,N247A (GlycMut)” the “other: calreticulin-driven immobilisation in ER inclusions, other: % cells with immobile YFP-Z” value was “abolishes”.

Source: PMC8993113
